From publication PMC6819594, “Screening antiproliferative drug for breast cancer from bisbenzylisoquinoline alkaloid tetrandrine and fangchinoline derivatives by targeting BLM helicase” (BMC Cancer, 2019) come the findings set out here.

The data set deals with BLM642-1290 helicase (UniProt P54132 642-1290). The experiment in a line: fluorescence anisotropy; mitomycin C (no significant effect); 20 mM Tris pH 7.9, 25 mM NaCl, 3 mM MgCl2, 0.1 mM DTT; EMSA at room temperature 45 min; FP temperature not stated. The settings on record: protein: recombinant; label: 3' fluorescein (FAM) on strand 2; 3' overhang 24 nt on strand 1; 21 bp duplex. (Fluorescence polarisation rises when a labelled molecule tumbles more slowly, as on binding a larger partner.)
Chain of BLM642-1290 helicase (P54132 642-1290): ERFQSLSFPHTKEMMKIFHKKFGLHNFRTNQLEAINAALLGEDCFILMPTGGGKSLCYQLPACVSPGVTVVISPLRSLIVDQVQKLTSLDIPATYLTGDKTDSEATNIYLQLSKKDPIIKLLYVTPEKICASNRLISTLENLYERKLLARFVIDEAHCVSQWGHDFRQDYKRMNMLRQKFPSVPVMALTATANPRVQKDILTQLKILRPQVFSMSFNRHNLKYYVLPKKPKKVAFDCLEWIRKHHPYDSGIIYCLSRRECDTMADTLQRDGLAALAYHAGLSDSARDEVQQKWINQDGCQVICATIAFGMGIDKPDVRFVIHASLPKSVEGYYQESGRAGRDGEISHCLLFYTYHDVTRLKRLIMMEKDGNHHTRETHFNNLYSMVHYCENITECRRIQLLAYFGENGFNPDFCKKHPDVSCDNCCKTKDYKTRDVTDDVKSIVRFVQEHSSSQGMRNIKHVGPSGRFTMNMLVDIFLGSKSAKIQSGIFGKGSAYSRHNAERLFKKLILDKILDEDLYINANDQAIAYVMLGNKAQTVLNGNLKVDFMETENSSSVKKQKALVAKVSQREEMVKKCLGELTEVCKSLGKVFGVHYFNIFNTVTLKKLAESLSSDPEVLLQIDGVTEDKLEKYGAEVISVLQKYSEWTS

B1: dsDNA A1A2 (dsDNA)
DNA 1: AATCCGTCGAGCAGAGTTAGGTTAGGTTAGGTTAGTTTTTTTTTT
DNA 2: CCTAACTCTGCTCGACGGATT
With B1, the binding result is listed as “binds”.
